B1: Protein maelstrom homolog, residues 3 to 71; numbered along this chain, Q96JY0 (parent)
chain: NRKASRNAYYFFVQEKIPELRRRGLPVARVADAIPYCSSDWALLREEEKEKYAEMAREWRAAQGKDPGP

± gives the uncertainty stated by the source.

Variants of B1 are the subject of the series. Description: abundance fitness (aPCA) (normalised: wild type 0, dead -1); higher = more abundant; growth selection in yeast, the domain comes from the species named. As to conditions: Homo sapiens.
In the case of NRKASRNAYYFFVQEKIPELRRRGLPVARVADAIPYCSSDWAPLREEEKEKYAEMAREWRAAQGKDPGP [L43P], the abundance fitness was -0.477 ± 0.077.

On to NRKASRNAYYFFVQEKIPELRRRGLPVARVADAIPYCSSDWACLREEEKEKYAEMAREWRAAQGKDPGP [L43C], for which the abundance fitness was -0.176 ± 0.11. In the case of NRKASRNAYYFFVQEKIPELRRRGLPVARVADAIPYCSSDWADLREEEKEKYAEMAREWRAAQGKDPGP [L43D] it was 0.277 ± 0.1. On to NRKASRNAYYFFVQEKIPELRRRGLPVARVADAIPYCSSDWAFLREEEKEKYAEMAREWRAAQGKDPGP [L43F], for which the abundance fitness was -0.473 ± 0.26. In the case of NRKASRNAYYFFVQEKIPELRRRGLPVARVADAIPYCSSDWAWLREEEKEKYAEMAREWRAAQGKDPGP [L43W], the abundance fitness is -0.287 ± 0.063. Consider NRKASRNAYYFFVQEKIPELRRRGLPVARVADAIPYCSSDWAKLREEEKEKYAEMAREWRAAQGKDPGP [L43K], for which the abundance fitness is -0.02 ± 0.097. As to NRKASRNAYYFFVQEKIPELRRRGLPVARVADAIPYCSSDWASLREEEKEKYAEMAREWRAAQGKDPGP [L43S], the abundance fitness turned out to be 0.094 ± 0.058. In the case of NRKASRNAYYFFVQEKIPELRRRGLPVARVADAIPYCSSDWAALREEEKEKYAEMAREWRAAQGKDPGP [L43A] it was 0.106 ± 0.073. As to NRKASRNAYYFFVQEKIPELRRRGLPVARVADAIPYCSSDWAMLREEEKEKYAEMAREWRAAQGKDPGP [L43M], the abundance fitness was -0.098 ± 0.078. For NRKASRNAYYFFVQEKIPELRRRGLPVARVADAIPYCSSDWAGLREEEKEKYAEMAREWRAAQGKDPGP [L43G], the abundance fitness amounted to 0.064 ± 0.046. As for NRKASRNAYYFFVQEKIPELRRRGLPVARVADAIPYCSSDWARLREEEKEKYAEMAREWRAAQGKDPGP [L43R], the figure is 0.158 ± 0.044; as for NRKASRNAYYFFVQEKIPELRRRGLPVARVADAIPYCSSDWAILREEEKEKYAEMAREWRAAQGKDPGP [L43I], -0.16 ± 0.24; as for NRKASRNAYYFFVQEKIPELRRRGLPVARVADAIPYCSSDWATLREEEKEKYAEMAREWRAAQGKDPGP [L43T], -0.108 ± 0.088. Take NRKASRNAYYFFVQEKIPELRRRGLPVARVADAIPYCSTDWALLREEEKEKYAEMAREWRAAQGKDPGP [S39T]: the abundance fitness came out at 0.132 ± 0.074.

For NRKASRNAYYFFVQEKIPELRRRGLPVARVADAIPYCSVDWALLREEEKEKYAEMAREWRAAQGKDPGP [S39V], the abundance fitness is -0.164 ± 0.074. For the variant NRKASRNAYYFFVQEKIPELRRRGLPVARVADAIPYCSQDWALLREEEKEKYAEMAREWRAAQGKDPGP [S39Q], the abundance fitness came to 0 ± 0.086. Turning to NRKASRNAYYFFVQEKIPELRRRGLPVARVADAIPYCSYDWALLREEEKEKYAEMAREWRAAQGKDPGP [S39Y], the abundance fitness stood at 0.041 ± 0.11.

With NRKASRNAYYFFVQEKIPELRRRGLPVARVADAIPYCSWDWALLREEEKEKYAEMAREWRAAQGKDPGP [S39W], the abundance fitness is 0.022 ± 0.067. NRKASRNAYYFFVQEKIPELRRRGLPVARVADAIPYCSSDWCLLREEEKEKYAEMAREWRAAQGKDPGP [A42C]: the abundance fitness was -0.177 ± 0.07. With NRKASRNAYYFFVQEKIPELRRRGLPVARVADAIPYCSSDWNLLREEEKEKYAEMAREWRAAQGKDPGP [A42N], the abundance fitness is 0.157 ± 0.11.

As for NRKASRNAYYFFVQEKIPELRRRGLPVARVADAIPYCSSDWMLLREEEKEKYAEMAREWRAAQGKDPGP [A42M], the abundance fitness was -0.083 ± 0.08. Regarding NRKASRNAYYFFVQEKIPELRRRGLPVARVADAIPYCSSDWKLLREEEKEKYAEMAREWRAAQGKDPGP [A42K], the abundance fitness came to 0.016 ± 0.084. Turning to NRKASRNAYYFFVQEKIPELRRRGLPVARVADAIPYCSSDWSLLREEEKEKYAEMAREWRAAQGKDPGP [A42S], the abundance fitness stood at 0 ± 0.067.

With NRKASRNAYYFFVQEKIPELRRRGLPVARVADAIPYCSSDWHLLREEEKEKYAEMAREWRAAQGKDPGP [A42H], the abundance fitness was -0.03 ± 0.12. Take NRKASRNAYYFFVQEKIPELRRRGLPVARVADAIPYCSSDWPLLREEEKEKYAEMAREWRAAQGKDPGP [A42P]: the abundance fitness was -0.326 ± 0.071. Take NRKASRNAYYFFVQEKIPELRRRGLPVARVADAIPYCSSDWYLLREEEKEKYAEMAREWRAAQGKDPGP [A42Y]: the abundance fitness was -0.101 ± 0.1. Regarding NRKASRNAYYFFVQEKIPELRRRGLPVARVADAIPYCSSDWILLREEEKEKYAEMAREWRAAQGKDPGP [A42I], the abundance fitness was -0.234 ± 0.27. As for NRKASRNAYYFFVQEKIPELRRRGLPVARVADAIPYCSSDWLLLREEEKEKYAEMAREWRAAQGKDPGP [A42L], the abundance fitness is -0.082 ± 0.061. For NRKASRNAYYFFVQEKIPELRRRGLPVARVADAIPYCSSDWDLLREEEKEKYAEMAREWRAAQGKDPGP [A42D], the abundance fitness turned out to be 0.015 ± 0.15. As for NRKASRNAYYFFVQEKIPELRRRGLPVARVADAIPYCSSDWGLLREEEKEKYAEMAREWRAAQGKDPGP [A42G], the figure is 0.058 ± 0.051; as for NRKASRNAYYFFVQEKIPELRRRGLPVARVADAIPYCSSDWELLREEEKEKYAEMAREWRAAQGKDPGP [A42E], 0.005 ± 0.075; as for NRKASRNAYYFFVQEKIPELRRRGLPVARVADAIPYCSSDWQLLREEEKEKYAEMAREWRAAQGKDPGP [A42Q], -0.147 ± 0.071.

For the variant NRKASRNAYYFFVQEKIPELRRRGLPVARVADAIPYCSSDWWLLREEEKEKYAEMAREWRAAQGKDPGP [A42W], the abundance fitness is -0.236 ± 0.062. With NRKASRNAYYFFVQEKIPELRRRGLPVARVADAIPYCSSDWFLLREEEKEKYAEMAREWRAAQGKDPGP [A42F], the abundance fitness was -0.081 ± 0.12. Consider NRKASRNAYYFFVQEKIPELRRRGLPVARVADAIPYCSSDWRLLREEEKEKYAEMAREWRAAQGKDPGP [A42R], for which the abundance fitness is -0.059 ± 0.051. In the case of NRKASRNAYYFFVQEKIPELRRRGLPVARVADAIPYCSSGWALLREEEKEKYAEMAREWRAAQGKDPGP [D40G], the abundance fitness was -0.856 ± 0.44. On to NRKASRNAYYFFVQEKIPELRRRGLPVARVADAIPYCSSYWALLREEEKEKYAEMAREWRAAQGKDPGP [D40Y], for which the abundance fitness is -0.48 ± 0.36. Take NRKASRNAYYFFVQEKIPELRRRGLPVARVADAIPYCSSVWALLREEEKEKYAEMAREWRAAQGKDPGP [D40V]: the abundance fitness was -0.036 ± 0.2. Regarding NRKASRNAYYFFVQEKIPELRRRGLPVARVADAIPYCSSNWALLREEEKEKYAEMAREWRAAQGKDPGP [D40N], the abundance fitness was -0.007 ± 0.16.
